The target in experiment [1] is lysate of porcine coronavirus. In words: ELISA Test 1, coated viral lysate, antibody 1:4000, Group 1. Background: ELISA stands for enzyme-linked immunosorbent assay.
Experiment [2] deals with lysate of porcine pseudorabies virus. The description is as above.
Experiment [3] deals with lysate of porcine coronavirus. The experiment is described as follows: ELISA Test 1, coated viral lysate, antibody 1:4000, Group 2.
Experiment [4] addresses lysate of porcine pseudorabies virus. The description is as above.
For experiment [5], the target named is lysate of porcine coronavirus. The experiment is described as follows: ELISA Test 2, coated viral lysate, antibody 1:4000, secondary antibody 1:2000.

B1: anti-PRRSV antibody 572 (antibody, V domains shown)
VH: EVQLQQSGPELVKPGASVKISCKASGFSFTGYYMHWVKQSHVKSLEWIGRIYPYTDSTIYNQNFKDKAGLTVDKSSSTAYMELHSLTSEDSAVYYCARDNGYADYAMDYWGQGTSVTVSS
VL: DIVMTQSPSSLSAFLGDSITITCHASQNIHVWLSWYQQKPGNIPKLLIYKASNLHTGVPSRFSGSGSGTGFTLTISSLQPEDIGTYYCQQGQSYPLTFGAGTKLELK
For the molecule B1, the OD450 was 0.322 OD450 in experiment [1]; 0.091 OD450 in experiment [2]; 0.312 OD450 in experiment [3]; 0.1 OD450 in experiment [4]; 0.782 OD450 in experiment [5].

Source of the values: patent publication US20230295276A1.
